According to US20100021480A1, “BIOACTIVE SUBSTANCE-BLOOD PROTEIN CONJUGATE AND STABILIZATION OF A BIOACTIVE SUBSTANCE USING THE SAME” (priority 2005, published 2010):

Assays:
[1] = biological target: activated albumin 21 (human serum albumin whose Cys34 free thiol is substituted by a disulfanyl group with aldrithiol) (human) (UniProt P02768); test: albumin binding test: 20 µl of 1 mM Compound 15 with 50 µl of 1 mM activated albumin in 100 µl PBS, 37 C 30 min, methanol precipitation, HPLC of supernatant (unbound peptide)
[2] = biological target: activated albumin 21 (human serum albumin whose Cys34 free thiol is substituted by a disulfanyl group with aldrithiol) (human) (UniProt P02768); test: albumin binding test: 40 µl of 1 mM Compound 15 with 50 µl of 1 mM activated albumin, HPLC of supernatant (unbound peptide)
[3] = biological target: activated albumin 21 (human serum albumin whose Cys34 free thiol is substituted by a disulfanyl group with aldrithiol) (human) (UniProt P02768); test: albumin binding test: 40 µl of 1 mM Compound 15 with 50 µl of 1 mM activated albumin in 100 µl PBS, 37 C 30 min, methanol precipitation, HPLC of supernatant (unbound peptide)
[4] = biological target: activated albumin 21 (human serum albumin whose Cys34 free thiol is substituted by a disulfanyl group with aldrithiol) (human) (UniProt P02768); test: albumin binding test: 50 µl of 1 mM Compound 15 with 40 µl of 1 mM activated albumin, HPLC of supernatant (unbound peptide)
[5] = biological target: activated albumin 21 (human serum albumin whose Cys34 free thiol is substituted by a disulfanyl group with aldrithiol) (human) (UniProt P02768); test: albumin binding test: 50 µl of 1 mM Compound 15 with 50 µl of 1 mM activated albumin, HPLC of supernatant (unbound peptide)
[6] = biological target: activated albumin 21 (human serum albumin whose Cys34 free thiol is substituted by a disulfanyl group with aldrithiol) (human) (UniProt P02768); test: albumin binding test: 20 µl of 1 mM Compound 15 with 50 µl of 1 mM activated albumin, HPLC of supernatant (unbound peptide)
[7] = biological target: activated albumin 21 (human serum albumin whose Cys34 free thiol is substituted by a disulfanyl group with aldrithiol) (human) (UniProt P02768); test: albumin binding test: 50 µl of 1 mM Compound 15 with 50 µl of 1 mM activated albumin in 100 µl, 37 C 30 min, methanol precipitation, HPLC of supernatant (unbound peptide)
[8] = biological target: activated albumin 21 (human serum albumin whose Cys34 free thiol is substituted by a disulfanyl group with aldrithiol) (human) (UniProt P02768); test: albumin binding test: 50 µl of 1 mM Compound 15 with 40 µl of 1 mM activated albumin in 100 µl PBS, 37 C 30 min, methanol precipitation, HPLC of supernatant (unbound peptide)

Chain of activated albumin 21 (human serum albumin whose Cys34 free thiol is substituted by a disulfanyl group with aldrithiol) (human) (P02768 25-609 limits assumed): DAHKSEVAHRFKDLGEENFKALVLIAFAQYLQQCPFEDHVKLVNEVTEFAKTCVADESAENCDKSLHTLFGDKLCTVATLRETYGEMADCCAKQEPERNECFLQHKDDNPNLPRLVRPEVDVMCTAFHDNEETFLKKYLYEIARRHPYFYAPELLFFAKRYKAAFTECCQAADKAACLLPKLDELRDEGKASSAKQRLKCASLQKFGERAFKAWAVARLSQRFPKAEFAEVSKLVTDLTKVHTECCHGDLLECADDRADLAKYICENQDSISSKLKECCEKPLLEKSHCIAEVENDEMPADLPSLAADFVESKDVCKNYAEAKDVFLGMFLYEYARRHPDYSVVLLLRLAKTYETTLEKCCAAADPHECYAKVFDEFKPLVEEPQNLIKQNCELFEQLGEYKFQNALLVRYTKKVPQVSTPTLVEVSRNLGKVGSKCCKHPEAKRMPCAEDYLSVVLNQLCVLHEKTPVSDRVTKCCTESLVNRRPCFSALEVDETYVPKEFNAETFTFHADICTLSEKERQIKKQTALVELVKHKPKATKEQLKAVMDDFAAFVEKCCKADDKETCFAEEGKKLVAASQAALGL

Question: How did the PA 20.6 min (HPLC peak area of Compound 15 left in the supernatant) [1] turn out when “Compound 15: Leuprolide-GSG-Lys-[ε-AEEA-CO-(CH2)2-SH]-NH2.2TFA (peptide)” was run?
Answer: 1.3e+06 peak area

Question: And the PA 20.6 min/4.4M (peak area against that of 10 µl Compound 15 alone) [2]?
Answer: 2.2

Question: And the PA 20.6 min (HPLC peak area of Compound 15 left in the supernatant) [3]?
Answer: 9.8e+06 peak area

Question: And the PA 20.6 min/4.4M (peak area against that of 10 µl Compound 15 alone) [4]?
Answer: 4

Question: What about the PA 20.6 min/4.4M (peak area against that of 10 µl Compound 15 alone) [5] of the same substance?
Answer: 3.3

Question: And the PA 20.6 min/4.4M (peak area against that of 10 µl Compound 15 alone) [6]?
Answer: 0.3

Question: What about the PA 20.6 min (HPLC peak area of Compound 15 left in the supernatant) [7] of the same substance?
Answer: 1.47e+07 peak area

Question: What about the PA 20.6 min (HPLC peak area of Compound 15 left in the supernatant) [8] of the same substance?
Answer: 1.79e+07 peak area
